Patent US20240309081A1 (QYUNS THERAPEUTICS, published 2024)

T1: interleukin-33 of rhesus monkeys (rhesus monkey, UniProt F7DLG4 112-269)
T1 construct: also called rhesus monkey IL-33
T1 sequence: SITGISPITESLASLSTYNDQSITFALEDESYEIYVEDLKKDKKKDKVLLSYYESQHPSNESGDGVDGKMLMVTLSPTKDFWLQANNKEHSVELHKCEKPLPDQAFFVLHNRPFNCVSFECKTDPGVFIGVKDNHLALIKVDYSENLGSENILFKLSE

T2: human interleukin-33 (hIL-33) (human, UniProt O95760 112-270)
T2 construct: The immunogen was bought from Novoprotein; also called recombinant human interleukin-33
T2 sequence: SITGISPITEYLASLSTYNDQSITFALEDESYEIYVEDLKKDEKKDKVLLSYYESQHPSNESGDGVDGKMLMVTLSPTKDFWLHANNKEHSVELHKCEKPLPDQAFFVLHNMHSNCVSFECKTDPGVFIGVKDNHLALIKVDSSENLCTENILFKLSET

T3: natural human interleukin-33 (human) (UniProt O95760)
T3 sequence (looked up): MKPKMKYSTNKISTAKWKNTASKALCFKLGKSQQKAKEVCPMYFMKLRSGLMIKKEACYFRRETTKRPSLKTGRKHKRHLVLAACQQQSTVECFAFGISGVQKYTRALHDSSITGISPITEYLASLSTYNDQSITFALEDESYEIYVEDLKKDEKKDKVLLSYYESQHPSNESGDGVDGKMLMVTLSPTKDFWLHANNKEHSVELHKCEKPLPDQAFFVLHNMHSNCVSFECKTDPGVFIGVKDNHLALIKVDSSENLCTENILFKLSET


Assays:
[1] = target: T1, interleukin-33 of rhesus monkeys; test: SPR (Biacore T200), antibody captured on Protein A chip
[2] = target: T2, human interleukin-33 (hIL-33); test: SPR (Biacore T200, 25 C), antibody captured on Protein A chip, antigen as analyte, 1:1 model
Description: Commercialized Protein A chip was used to immobilize an appropriate amount of antibody by capture method, so that the Rmax was about 50 RU, and the capture flow rate was 10 μl/min. The antigen was diluted by gradient, the flow rate of the instrument was switched to 30 μl/min, and the antigen flowed through the reference channel and the channel of the immobilized antibody in order of concentration from low to high, and the buffer was used as a negative control. After each binding and dissociation, the chip was regenerated with glycine at pH 1.5. The 1:1 binding model in Kinetics option was selected for fitting using the analysis software that comes with the instrument, and the binding rate constant kₐ, the dissociation rate constant kd and the equilibrium dissociation constant KD value of the antibody were calculated.
In addition, the affinity of QX007N (HZD78-70) and Etokimab/ANB020, a monoclonal antibody against human interleukin-33 developed by AnaptysBio were compared, and the detection method for known antibodies was the same as that for QX007N. Particularly, Etokimab/ANB020 was self-made by constructing an expression plasmid according to the APE4909 sequence provided by the patent WO2015106080A2, and transiently transfecting ExpiCHO-S cells.

[3] = target: T2, human interleukin-33 (hIL-33); test: cell-based or functional assay
[4] = target: T3, natural human interleukin-33 (human); test: cell-based or functional assay

binding result [1] | Kd [2] [nM] | koff [2] [s⁻¹] | kon [2] [M⁻¹ s⁻¹] | inhibition of NF-KB/AP-1 signal transduction in HEK Blue IL-33 cells induced by recombinant human interleukin-33 (SEAP, OD630nm) [3] [ng/mL] | neutralization of IFN-gamma release from human whole blood induced by recombinant human interleukin-33 [3] [ng/mL] | neutralization of IL-5 release from KU812 cells induced by recombinant human interleukin-33 (IL-5 ELISA) [3] [ng/mL] | inhibition of NF-KB/AP-1 signal transduction in HEK Blue IL-33 cells induced by natural human interleukin-33 (SEAP, OD630nm) [4] [ng/mL] | Binder
no binding | 1.23 | 0.000481 | 392000 | – | – | – | – | QX007N (HZD78-70) (antibody, human IgG1, kappa, V domains shown, Humanized rabbit antibody, expressed in ExpiCHO-S cells and purified with Protein A; also called humanized 78#) VH: EVQLVESGGGLVQPGGSLRLSCAASGFSLSSYHMIWVRQAPGKGLEWVGVIYPNSNIYYATWAKGRFTISRDNSKNTLYLQMNSLRAEDTAVYYCARTIYVHVYSALSIWGQGTLVTVSS VL: AFQMTQSPSSVSASVGDRVTITCQASESVLNEVSWYQQKPGKAPKLLIYFASKLASGVPSRFSGSGSGTDFTLTISSLQPEDFATYYCQQDWSMDNIDNAFGGGTKVEIKR
– | 0.869 | 0.000369 | 424000 | 6.05 | 31.9 | 44 | 2.5 | Etokimab/ANB020 (antibody, INN chains, looked up, V domains shown) VH: QVQLMQSGAEVKKPGASVKVSCKASGYTFTSYWMHWVRQAPGQGLEWMGTIYPRNSNTDYNQKFKARVTMTRDTSTSTVYMELSSLRSEDTAVYYCARPLYYYLTSPPTLFWGQGTLVTVSS VL: DIQLTQSPSFLSASVGDRVTITCKASQDVGTAVAWYQQKPGKAPKLLIYWASTRHTGVPSRFSGSGSGTEFTLTISSLQPEDFATYYCQQAKTYPFTFGSGTKLEIK
